From the supplement of paper PMC10567573

B1: ZBED1 (parent)
chain: EQVFSLGDGVSGGFFGIRDSSFL
B2: CDKL4 (parent)
chain: AVKKFVESEDDPVVKKIALREIRM

Variants of: B1
Test: protein stability index of a GFP-peptide fusion (GPS, HEK-293T) (PSI 1-6); higher = more stable
Details: c terminus: native
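Further: lentivirally expressed fusions sorted by FACS into six bins by GFP to DsRed ratio, PSI derived from sequencing read proportions per bin multiplied by bin number.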

| Variant | protein stability index |
| --- | --- |
| S21A | 3 |
| S21V | 1.74 |
| S21G | 3.84 |
| S21L | 2.5 |
| S21P | 3.4 |
| S21H | 3.46 |
| S21E | 3.67 |
| S21Q | 3.48 |
| S21Y | 2.66 |
| S21D | 4.08 |
| S21C | 2.77 |
| S21R | 3.61 |
| S21K | 4.02 |
| S21M | 2.54 |
| S21W | 2.59 |
| S21F | 2.61 |
| S21N | 3.62 |
| S21T | 3.33 |
| S21I | 2.25 |
| S20K | 3.53 |
| S20L | 2.5 |
| S20G | 3.22 |
| S20M | 2.49 |
| S20Y | 2.96 |
| S20W | 2.35 |
| S20H | 2.76 |

| Variant | protein stability index |
| --- | --- |
| S20Q | 3.7 |
| S20E | 3.91 |
| S20N | 3.7 |
| S20C | 1.96 |
| S20A | 3.1 |
| S20R | 3.21 |
| S20P | 3.73 |
| S20V | 2.63 |
| S20I | 2.42 |
| S20D | 3.71 |
| S20T | 3.22 |
| S20F | 2.39 |
| F22A | 4.15 |
| F22L | 3.41 |
| F22H | 4.5 |
| F22G | 4.14 |
| F22P | 3.43 |
| F22E | 4.08 |
| F22W | 3.73 |
| F22V | 3.35 |
| F22Y | 3.33 |
| F22T | 4.07 |
| F22Q | 4.24 |
| F22K | 2.39 |
| F22D | 4.06 |
| F22M | 3.49 |

| Variant | protein stability index |
| --- | --- |
| F22C | 3.39 |
| F22S | 3.79 |
| F22N | 4.22 |
| F22I | 3.04 |
| F22R | 3.61 |
| L23M | 3.67 |
| L23P | 3.92 |
| L23T | 3.33 |
| L23G | 1.56 |
| L23K | 4.35 |
| L23E | 4.54 |
| L23H | 3.9 |
| L23I | 2.99 |
| L23C | 3.34 |
| L23Y | 2.61 |
| L23V | 3.19 |
| L23F | 2.63 |
| L23Q | 3.98 |
| L23S | 3.25 |
| L23A | 2.42 |
| L23N | 3.94 |
| L23W | 2.66 |
| L23R | 3.35 |
| L23D | 3.96 |

Variants of: B2
Test: as above
Details: c terminus: a fixed tail appended

| Variant | protein stability index |
| --- | --- |
| V2S | 3.51 |
| V2Q | 3.56 |
| V2I | 2.31 |
| V2M | 2.79 |
| V2P | 3.74 |
| V2A | 3.8 |
| V2G | 3.82 |
| V2Y | 2.52 |
| V2H | 3.03 |
| V2R | 2.85 |
| V2L | 3.7 |
| V2D | 3.71 |
| V2F | 2.52 |
| V2N | 3.63 |
| V2K | 3.55 |
| V2E | 4.01 |
| V2W | 2.1 |
| V2T | 3.35 |
| V2C | 2.85 |
| D11E | 3.15 |
| D11W | 3.34 |
| D11P | 2.81 |
| D11F | 2.25 |
| D11C | 2.16 |

| Variant | protein stability index |
| --- | --- |
| D11Q | 2.81 |
| D11N | 3.19 |
| D11I | 2.58 |
| D11G | 1.8 |
| D11Y | 2.46 |
| D11H | 2.96 |
| D11A | 2.61 |
| D11S | 2.87 |
| D11K | 3.22 |
| D11L | 1.81 |
| D11T | 3 |
| D11R | 2.61 |
| D11V | 2.44 |
| D11M | 2.44 |
| V6E | 3.72 |
| V6Q | 3.42 |
| V6C | 2.82 |
| V6T | 3.16 |
| V6K | 3.26 |
| V6P | 3.78 |
| V6G | 3.33 |
| V6I | 1.93 |
| V6L | 3.23 |
| V6S | 3.17 |

| Variant | protein stability index |
| --- | --- |
| V6W | 2.57 |
| V6Y | 2.57 |
| V6N | 3.6 |
| V6A | 3.07 |
| V6R | 2.48 |
| V6H | 3.08 |
| V6D | 3.65 |
| V6M | 3.23 |
| V6F | 2.1 |
| P12T | 2.76 |
| P12W | 1.82 |
| P12I | 2.52 |
| P12V | 2.48 |
| P12H | 2.77 |
| P12F | 2.66 |
| P12Q | 2.45 |
| P12R | 3.46 |
| P12K | 3.23 |
| P12S | 2.99 |
| P12E | 3.88 |
| P12C | 3.05 |
| P12G | 2.57 |
| P12L | 2.55 |
| P12Y | 2.18 |

| Variant | protein stability index |
| --- | --- |
| P12A | 3.04 |
| P12M | 1.95 |
| P12D | 3.22 |
| P12N | 3.08 |
| E7T | 2.52 |
| E7Q | 2.54 |
| E7N | 3.19 |
| E7S | 3.04 |
| E7P | 2.97 |
| E7V | 2.54 |
| E7C | 2.36 |
| E7Y | 2.32 |
| E7W | 2.14 |
| E7M | 2.43 |
| E7D | 2.71 |
| E7K | 2.61 |
| E7H | 2.18 |
| E7F | 1.94 |
| E7L | 1.97 |
| E7I | 2 |
| E7G | 1.99 |
| E7A | 2.99 |
| E7R | 2.52 |
| V14A | 3.01 |

| Variant | protein stability index |
| --- | --- |
| V14C | 3.74 |
| V14I | 2.56 |
| V14D | 3.48 |
| V14M | 2.69 |
| V14E | 4.1 |
| V14G | 2.97 |
| V14F | 2.01 |
| V14L | 2.89 |
| V14H | 3.38 |
| V14K | 2.82 |
| F5E | 3.94 |
| F5P | 4.07 |
| F5K | 3.55 |
| F5S | 4.46 |
| F5N | 3.14 |
| F5R | 3.63 |
| F5I | 2.94 |
| F5W | 2.47 |
| F5L | 2.98 |
| F5T | 4 |
| F5C | 4.34 |
| F5Y | 3.46 |
| F5D | 3.75 |
| F5H | 3.24 |

| Variant | protein stability index |
| --- | --- |
| F5Q | 3.01 |
| F5G | 4.28 |
| F5M | 3.33 |
| F5V | 3.81 |
| F5A | 3.66 |
| K4V | 2.55 |
| K4G | 3.5 |
| K4F | 2.13 |
| K4C | 2.6 |
| K4A | 3.07 |
| K4S | 3.15 |
| K4Y | 2.25 |
| K4T | 3.25 |
| K4H | 2.88 |
| K4W | 2.43 |
| K4P | 4.01 |
| K4D | 4.07 |
| K4N | 2.92 |
| K4M | 2.34 |
| K4I | 1.88 |
| K4E | 3.55 |
| K4L | 2.49 |
| K4Q | 3.17 |
| K4R | 2.7 |

| Variant | protein stability index |
| --- | --- |
| S8E | 3.07 |
| S8Q | 3.27 |
| S8C | 2.54 |
| S8N | 3.32 |
| S8F | 2.08 |
| S8D | 3.12 |
| S8A | 2.92 |
| S8Y | 3.17 |
| S8P | 2.7 |
| S8K | 3.15 |
| S8R | 2.43 |
| S8G | 2.68 |
| S8W | 2.24 |
| S8H | 3.02 |
| S8L | 1.91 |
| S8I | 2.54 |
| S8T | 3.14 |
| S8M | 3.04 |
| S8V | 2.64 |
| V13S | 3.48 |
| V13A | 3.23 |
| V13K | 3.27 |
| V13I | 2.83 |
| V13L | 2.93 |

| Variant | protein stability index |
| --- | --- |
| V13Y | 2.3 |
| V13E | 3.35 |
| V13H | 3.11 |
| V13F | 2.5 |
| V13W | 2.49 |
| V13R | 3.08 |
| V13Q | 3.47 |
| V13G | 3.54 |
| V13M | 2.73 |
| V13T | 3.77 |
| V13N | 3.28 |
| V13D | 3.67 |
| V13P | 3.29 |
| V13C | 2.67 |
| K3E | 3.72 |
| K3W | 2.35 |
| K3G | 2.74 |
| K3Y | 2.28 |
| K3A | 2.83 |
| K3L | 2.34 |
| K3V | 1.95 |
| K3S | 3.23 |
| K3Q | 3.04 |
| K3H | 3.6 |

| Variant | protein stability index |
| --- | --- |
| K3T | 2.86 |
| K3C | 2.66 |
| K3N | 3.45 |
| K3I | 1.91 |
| K3R | 3.39 |
| K3M | 2.28 |
| K3P | 3.02 |
| K3D | 3.23 |
| K3F | 1.76 |
| A1T | 3.1 |
| A1R | 2.45 |
| A1Y | 2.2 |
| A1M | 2.69 |
| A1G | 3.63 |
| A1P | 3.17 |
| A1W | 2.72 |
| A1L | 1.99 |
| A1K | 2.91 |
| A1I | 2.16 |
| A1Q | 3.3 |
| A1C | 2.48 |
| A1N | 3.38 |
| A1V | 2.43 |
| A1S | 3.94 |

| Variant | protein stability index |
| --- | --- |
| A1E | 3.85 |
| A1D | 3.75 |
| A1F | 2.21 |
| A1H | 2.59 |
| E9M | 1.76 |
| E9H | 2.71 |
| E9F | 2.09 |
| E9N | 2.56 |
| E9Y | 1.74 |
| E9W | 2.38 |
| E9V | 2.48 |
| E9P | 2.34 |
| E9S | 2.97 |
| E9C | 2.23 |
| E9D | 2.69 |
| E9A | 2.4 |
| E9R | 2.51 |
| E9T | 3.02 |
| E9Q | 3.19 |
| E9K | 2.69 |
| E9I | 2.51 |
| E9L | 1.64 |
| E9G | 2.43 |
| D10M | 2.65 |

| Variant | protein stability index |
| --- | --- |
| D10E | 2.99 |
| D10F | 1.77 |
| D10R | 3.15 |
| D10H | 2.82 |
| D10G | 3.07 |
| D10V | 2.23 |
| D10K | 2.68 |
| D10S | 2.83 |
| D10L | 1.68 |
| D10P | 2.72 |
| D10I | 1.81 |
| D10W | 2.16 |
| D10Y | 1.84 |
| D10C | 2.15 |
| D10A | 2.58 |
| D10N | 2.91 |
| D10T | 2.78 |
| D10Q | 2.8 |
